From patent US20220348674A1

How the values were obtained:
[1] = biological target: cell surface human CD40 on HEK-CD40 cells (human) (UniProt P25942); experiment: flow cytometry on HEK-CD40 cells; mAb at 5 ug/ml
[2] = biological target: cell surface human CD40 on HEK-CD40 cells (human) (UniProt P25942); experiment: flow cytometry on HEK-CD40 cells; mAb at 12 ug/ml
[3] = biological target: cell surface human CD40 on HEK-CD40 cells (human) (UniProt P25942); experiment: flow cytometry on HEK-CD40 cells; mAb at 1.7 ug/ml
[4] = biological target: cell surface human CD40 on HEK-CD40 cells (human) (UniProt P25942); experiment: flow cytometry on HEK-CD40 cells; mAb at 0.02 ug/ml
[5] = biological target: cell surface human CD40 on HEK-CD40 cells (human) (UniProt P25942); experiment: flow cytometry on HEK-CD40 cells; mAb at 0.06 ug/ml
[6] = biological target: cell surface human CD40 on HEK-CD40 cells (human) (UniProt P25942); experiment: flow cytometry on HEK-CD40 cells; mAb at 0.56 ug/ml
[7] = biological target: cell surface human CD40 on HEK-CD40 cells (human) (UniProt P25942); experiment: flow cytometry on HEK-CD40 cells; mAb at 0.007 ug/ml
[8] = biological target: cell surface human CD40 on HEK-CD40 cells (human) (UniProt P25942); experiment: flow cytometry on HEK-CD40 cells; mAb at 0.78 ug/ml (so in the source)
[9] = biological target: CD40 on Ramos-Blue cells (human)
[10] = biological target: cell surface human CD40 on HEK-CD40 cells (human) (UniProt P25942); experiment: flow cytometry, titration on HEK-CD40 cells, CD40 MFI, anti-human IgG secondary antibody

cell surface human CD40 on HEK-CD40 cells (human), sequence (P25942 21-277): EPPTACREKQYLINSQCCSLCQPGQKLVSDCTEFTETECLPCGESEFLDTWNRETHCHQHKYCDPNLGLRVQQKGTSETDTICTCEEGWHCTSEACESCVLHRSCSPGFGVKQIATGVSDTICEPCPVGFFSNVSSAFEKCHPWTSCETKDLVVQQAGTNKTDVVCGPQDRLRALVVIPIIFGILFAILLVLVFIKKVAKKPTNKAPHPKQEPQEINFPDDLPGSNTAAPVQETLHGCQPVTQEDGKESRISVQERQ
CP-870,893, IgG2 isotype fully human anti-CD40 mAb (antibody), sequence (VH): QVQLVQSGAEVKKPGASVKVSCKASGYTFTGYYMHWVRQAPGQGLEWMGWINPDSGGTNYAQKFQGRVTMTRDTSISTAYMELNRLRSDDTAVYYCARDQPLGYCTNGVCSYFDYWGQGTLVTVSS
CP-870,893, IgG2 isotype fully human anti-CD40 mAb (antibody), sequence (VL): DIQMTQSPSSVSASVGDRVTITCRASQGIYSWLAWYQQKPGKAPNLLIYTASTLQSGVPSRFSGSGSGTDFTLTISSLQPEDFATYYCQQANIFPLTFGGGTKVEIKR

Row | MFI [1] | MFI [2] | MFI [3] | MFI [4] | MFI [5] | MFI [6] | MFI [7] | MFI [8] | EC50, w/o PDL1 (Ramos-Blue NFkB-SEAP reporter, OD630, HEK-control cells added) [9] | EC50, with PDL1 (Ramos-Blue NFkB-SEAP reporter, OD630, HEK-PDL1 cells added) [9] | EC50 [10] | Substance
1 | 112 | 73.7 | 61.3 | 40.1 | 40.2 | 30.7 | 28.3 | 32.3 |  |  |  | Human IgG1 isotype control (Bioxell, Catalog BE 0297) (antibody)
2 | 20900 | 23700 | 14100 | 635 | 1530 | 6790 | 271 | 3670 | 0.15 nM | 0.12 nM | 1.58 µg/mL | CP-870,893, IgG2 isotype fully human anti-CD40 mAb (antibody)
3 | 24500 | 24700 | 23300 | 2360 | 4590 | 18200 | 1150 | 9840 | 2.6 nM | 2.67 nM | 0.28 µg/mL | APX005m, humanized anti-CD40 mAb, IgG1 isotype with S267E mutation (antibody)
